For this assay, the target named is T1, OphP(S580A) (Omphalotus olearius, S580A).
T1 construct: also called OphP variant S580A
T1 chain: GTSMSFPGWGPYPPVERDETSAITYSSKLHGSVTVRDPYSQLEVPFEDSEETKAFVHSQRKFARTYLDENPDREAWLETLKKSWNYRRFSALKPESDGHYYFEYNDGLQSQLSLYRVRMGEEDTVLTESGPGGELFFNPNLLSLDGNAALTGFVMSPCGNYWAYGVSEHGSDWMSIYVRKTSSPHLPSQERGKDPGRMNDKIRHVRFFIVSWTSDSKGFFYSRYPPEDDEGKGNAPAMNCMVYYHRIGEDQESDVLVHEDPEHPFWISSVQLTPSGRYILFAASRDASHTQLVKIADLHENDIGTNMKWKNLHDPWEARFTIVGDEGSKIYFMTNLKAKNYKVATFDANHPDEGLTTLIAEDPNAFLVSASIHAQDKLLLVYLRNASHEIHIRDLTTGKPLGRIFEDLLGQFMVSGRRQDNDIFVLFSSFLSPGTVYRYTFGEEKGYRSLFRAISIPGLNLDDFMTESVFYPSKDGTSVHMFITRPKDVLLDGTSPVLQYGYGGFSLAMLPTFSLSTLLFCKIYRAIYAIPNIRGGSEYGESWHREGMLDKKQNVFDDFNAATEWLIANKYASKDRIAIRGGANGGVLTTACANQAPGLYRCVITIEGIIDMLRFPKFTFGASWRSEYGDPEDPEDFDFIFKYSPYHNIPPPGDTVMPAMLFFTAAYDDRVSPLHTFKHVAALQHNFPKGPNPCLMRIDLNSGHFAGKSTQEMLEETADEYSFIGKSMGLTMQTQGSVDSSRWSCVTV
Put plainly: crystal structure. The following applies: both partners purified.

B1: Oph-15mer (peptide)
peptide: GFPWVIVVGVIGVIG
In the case of B1, the binding result is reported as “binds”.

B2: Oph-18mer^NL (peptide)
peptide: WVIVVGVIGVIGSVMSTE
notes: also called 18mer^CF
On to B2, for which the binding result was “binds”.

(Values after article doi:10.1101/2022.07.21.500988, “Molecular insight into the enzymatic macrocyclization of multiply backbone N-methylated peptides” (bioRxiv, 2022).)
